The values below come from doi:10.1101/2025.10.03.680009.

In general, stoichiometry N refers to the number of molecules, sites or subunits per partner or assembly. Broadly, the Kd is the equilibrium constant for the complex coming apart. Low readings indicate higher affinity, high ones lower affinity.

For one test, the target named is GST-PreScission protease. Put plainly: SEC. (Size exclusion chromatography separates by hydrodynamic size, large species first.)
Test [1] concerns the target GST-TbPEX6 (full-length) (Trypanosoma brucei). Put plainly: AlphaScreen or HTRF. (In general: Alpha assays give light when donor and acceptor beads are brought close together.)
Test [2] concerns the target tag-free TbPEX6 (Trypanosoma brucei). Put plainly: SEC.

GST-PreScission protease (enzyme): in the test with GST-PreScission protease, the stoichiometry N is 2. In the case of “His6-TbPEX15ΔTM (1-320aa) (domain or fragment)”, the dissociation constant (Kd) in test [1] was 10.3 nM. In test [2], this substance returned a stoichiometry N of 1. For “Tag-free TbPEX15ΔTM (1-320aa) (domain or fragment)”, the Kd in test [1] lay within 15.3 to 30.4 nM.
